In the supplement of paper PMC10065799, “High-throughput profiling of sequence recognition by tyrosine kinases and SH2 domains using bacterial peptide display” (eLife, 2023):

Assays:
AncSZ = test: phosphorylation enrichment, bacterial display (enrichment ratio); higher = better substrate or ligand; peptides without Tyr show the background
EPHB1 = EPHB1 (UniProt P54762); test: as above
EPHB2 = EPHB2 (UniProt P29323); test: as above
FGFR1 = FGFR1 (UniProt P11362); test: as above
FGFR3 = FGFR3 (UniProt P22607); test: as above
Fer (mouse) = test: as above
Fes = Fes (UniProt P07332); test: as above
Fyn = Fyn (UniProt P06241); test: as above
Hck = Hck (UniProt P08631); test: as above
Jak2 = Jak2 (UniProt O60674); test: as above
MERTK = MERTK (UniProt Q12866); test: as above
c-Abl (mouse) = test: as above
c-Src = test: as above
Grb2 SH2 = Grb2 SH2 (UniProt P62993); test: SH2 binding enrichment of the phosphorylated peptide, bacterial display (enrichment ratio); higher = better substrate or ligand; peptides without Tyr show the background
SHP2-C SH2 = test: as above
c-Src SH2 = test: as above
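For SH2 binding enrichment of the phosphorylated peptide, bacterial display in this document: peptide library displayed on the E. coli surface as eCPX fusions, selected cells deep-sequenced, score is each peptide's frequency after selection divided by its frequency in the input.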
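For phosphorylation enrichment, bacterial display in this document: 11-residue human phosphosite peptides and single-mutation variants displayed on the E. coli surface, counted by deep sequencing, each peptide's frequency after selection divided by its frequency in the unselected input library; frequency after pTyr selection over input frequency; kinase dosed for 20-30% of maximal phosphorylation in three min.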

Fes, sequence (P07332 whole entry, looked up): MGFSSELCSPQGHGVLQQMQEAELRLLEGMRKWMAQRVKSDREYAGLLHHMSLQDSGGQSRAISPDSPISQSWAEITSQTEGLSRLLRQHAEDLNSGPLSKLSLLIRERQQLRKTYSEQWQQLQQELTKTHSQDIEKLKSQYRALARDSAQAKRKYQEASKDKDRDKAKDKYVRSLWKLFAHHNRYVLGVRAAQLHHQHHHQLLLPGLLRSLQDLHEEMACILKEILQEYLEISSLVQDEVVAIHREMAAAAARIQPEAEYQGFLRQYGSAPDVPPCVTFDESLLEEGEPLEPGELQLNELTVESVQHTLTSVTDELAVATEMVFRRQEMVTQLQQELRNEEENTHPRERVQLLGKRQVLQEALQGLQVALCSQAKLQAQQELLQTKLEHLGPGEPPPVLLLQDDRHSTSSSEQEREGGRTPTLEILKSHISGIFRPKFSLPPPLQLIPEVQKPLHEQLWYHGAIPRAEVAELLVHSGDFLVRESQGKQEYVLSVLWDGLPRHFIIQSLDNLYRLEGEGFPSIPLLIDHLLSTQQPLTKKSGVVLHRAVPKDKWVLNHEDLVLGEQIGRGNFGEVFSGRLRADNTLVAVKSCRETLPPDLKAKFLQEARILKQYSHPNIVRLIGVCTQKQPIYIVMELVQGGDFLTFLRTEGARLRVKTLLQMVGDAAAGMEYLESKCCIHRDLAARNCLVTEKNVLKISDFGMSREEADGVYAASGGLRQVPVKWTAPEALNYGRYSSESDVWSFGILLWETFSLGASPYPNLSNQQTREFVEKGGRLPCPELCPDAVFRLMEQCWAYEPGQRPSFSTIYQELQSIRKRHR
Grb2 SH2, sequence (P62993 whole entry, looked up): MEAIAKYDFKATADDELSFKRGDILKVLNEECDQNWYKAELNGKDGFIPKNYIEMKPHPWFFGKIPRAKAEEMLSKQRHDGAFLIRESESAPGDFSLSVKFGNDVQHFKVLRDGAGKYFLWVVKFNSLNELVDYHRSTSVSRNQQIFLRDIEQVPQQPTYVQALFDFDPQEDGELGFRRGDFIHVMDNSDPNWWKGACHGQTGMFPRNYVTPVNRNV
MERTK, sequence (Q12866 whole entry, looked up): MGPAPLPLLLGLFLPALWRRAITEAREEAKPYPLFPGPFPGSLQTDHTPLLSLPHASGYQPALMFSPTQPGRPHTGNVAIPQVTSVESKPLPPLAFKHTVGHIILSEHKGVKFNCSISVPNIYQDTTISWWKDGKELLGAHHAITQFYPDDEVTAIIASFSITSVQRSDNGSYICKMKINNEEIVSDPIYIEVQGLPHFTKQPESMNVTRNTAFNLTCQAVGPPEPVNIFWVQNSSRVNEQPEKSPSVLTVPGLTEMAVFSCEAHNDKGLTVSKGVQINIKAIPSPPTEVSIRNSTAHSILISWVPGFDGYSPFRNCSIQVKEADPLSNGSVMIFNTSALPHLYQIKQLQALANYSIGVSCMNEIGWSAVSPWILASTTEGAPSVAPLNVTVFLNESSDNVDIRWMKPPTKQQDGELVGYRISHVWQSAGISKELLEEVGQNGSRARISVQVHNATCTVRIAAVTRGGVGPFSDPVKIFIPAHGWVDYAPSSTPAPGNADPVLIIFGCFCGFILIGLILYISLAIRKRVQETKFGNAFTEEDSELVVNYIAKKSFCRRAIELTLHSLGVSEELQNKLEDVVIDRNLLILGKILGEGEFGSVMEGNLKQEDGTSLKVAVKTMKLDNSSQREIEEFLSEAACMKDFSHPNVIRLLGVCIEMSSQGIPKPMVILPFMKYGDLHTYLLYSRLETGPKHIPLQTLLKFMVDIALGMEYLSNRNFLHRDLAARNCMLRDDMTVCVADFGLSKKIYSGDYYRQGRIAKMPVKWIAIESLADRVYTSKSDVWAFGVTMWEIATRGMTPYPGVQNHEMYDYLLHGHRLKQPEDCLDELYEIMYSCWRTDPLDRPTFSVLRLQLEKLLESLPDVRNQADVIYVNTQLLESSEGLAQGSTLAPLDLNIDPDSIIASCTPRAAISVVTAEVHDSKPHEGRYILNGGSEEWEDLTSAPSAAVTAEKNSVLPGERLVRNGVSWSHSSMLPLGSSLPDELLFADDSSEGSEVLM
Jak2, sequence (O60674 whole entry, looked up): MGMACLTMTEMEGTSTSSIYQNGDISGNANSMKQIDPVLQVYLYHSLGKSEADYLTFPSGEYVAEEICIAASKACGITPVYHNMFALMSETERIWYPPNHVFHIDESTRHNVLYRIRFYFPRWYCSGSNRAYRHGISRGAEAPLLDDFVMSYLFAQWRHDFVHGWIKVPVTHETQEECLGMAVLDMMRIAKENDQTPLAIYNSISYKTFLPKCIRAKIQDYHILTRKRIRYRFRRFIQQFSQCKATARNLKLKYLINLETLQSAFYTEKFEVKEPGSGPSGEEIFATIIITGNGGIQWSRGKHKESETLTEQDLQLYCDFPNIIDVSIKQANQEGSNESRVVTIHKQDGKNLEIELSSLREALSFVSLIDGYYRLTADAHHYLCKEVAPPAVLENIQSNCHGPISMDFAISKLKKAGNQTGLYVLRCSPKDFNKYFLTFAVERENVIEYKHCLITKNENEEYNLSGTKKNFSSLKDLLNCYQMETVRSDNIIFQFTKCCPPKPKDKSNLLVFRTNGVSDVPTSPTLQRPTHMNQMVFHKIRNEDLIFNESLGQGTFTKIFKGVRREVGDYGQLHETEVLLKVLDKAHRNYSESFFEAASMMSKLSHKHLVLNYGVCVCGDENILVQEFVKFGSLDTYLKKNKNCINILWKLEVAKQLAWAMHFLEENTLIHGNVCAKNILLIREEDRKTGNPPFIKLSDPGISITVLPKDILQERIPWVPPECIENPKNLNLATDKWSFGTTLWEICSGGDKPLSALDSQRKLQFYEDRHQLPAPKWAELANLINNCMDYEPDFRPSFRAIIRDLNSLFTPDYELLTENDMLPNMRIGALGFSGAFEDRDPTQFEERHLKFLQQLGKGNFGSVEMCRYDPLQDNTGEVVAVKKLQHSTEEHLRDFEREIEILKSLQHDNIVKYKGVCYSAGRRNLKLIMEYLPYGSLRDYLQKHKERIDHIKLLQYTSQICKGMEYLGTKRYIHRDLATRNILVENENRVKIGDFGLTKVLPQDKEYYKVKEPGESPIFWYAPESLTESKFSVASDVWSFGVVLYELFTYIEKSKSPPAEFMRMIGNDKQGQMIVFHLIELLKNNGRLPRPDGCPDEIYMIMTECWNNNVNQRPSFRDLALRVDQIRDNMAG
EPHB1, sequence (P54762 whole entry, looked up): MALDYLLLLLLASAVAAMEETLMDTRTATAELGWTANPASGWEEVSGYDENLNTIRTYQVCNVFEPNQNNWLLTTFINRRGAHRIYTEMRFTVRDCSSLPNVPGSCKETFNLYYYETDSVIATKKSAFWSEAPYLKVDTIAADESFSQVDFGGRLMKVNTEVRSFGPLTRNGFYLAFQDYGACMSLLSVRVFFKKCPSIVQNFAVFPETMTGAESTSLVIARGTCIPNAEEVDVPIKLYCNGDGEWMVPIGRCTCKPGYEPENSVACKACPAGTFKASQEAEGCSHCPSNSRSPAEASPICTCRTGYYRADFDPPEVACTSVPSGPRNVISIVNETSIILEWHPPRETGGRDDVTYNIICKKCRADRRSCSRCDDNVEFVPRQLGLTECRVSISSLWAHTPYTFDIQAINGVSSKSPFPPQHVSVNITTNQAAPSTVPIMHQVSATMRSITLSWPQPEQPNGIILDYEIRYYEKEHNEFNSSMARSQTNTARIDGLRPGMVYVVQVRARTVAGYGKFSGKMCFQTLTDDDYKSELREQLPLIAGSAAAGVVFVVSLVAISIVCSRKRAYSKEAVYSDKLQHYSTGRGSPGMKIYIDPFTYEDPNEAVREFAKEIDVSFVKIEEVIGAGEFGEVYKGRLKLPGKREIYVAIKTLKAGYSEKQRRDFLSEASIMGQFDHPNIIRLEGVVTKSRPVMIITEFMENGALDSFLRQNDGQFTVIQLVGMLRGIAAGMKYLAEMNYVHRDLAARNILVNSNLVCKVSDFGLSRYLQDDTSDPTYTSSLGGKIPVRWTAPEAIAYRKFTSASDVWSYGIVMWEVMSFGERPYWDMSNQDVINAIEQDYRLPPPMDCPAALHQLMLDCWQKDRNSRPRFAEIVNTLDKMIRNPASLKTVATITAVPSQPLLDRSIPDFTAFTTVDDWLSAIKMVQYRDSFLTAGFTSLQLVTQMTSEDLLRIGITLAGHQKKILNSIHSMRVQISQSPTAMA
FGFR3, sequence (P22607 whole entry, looked up): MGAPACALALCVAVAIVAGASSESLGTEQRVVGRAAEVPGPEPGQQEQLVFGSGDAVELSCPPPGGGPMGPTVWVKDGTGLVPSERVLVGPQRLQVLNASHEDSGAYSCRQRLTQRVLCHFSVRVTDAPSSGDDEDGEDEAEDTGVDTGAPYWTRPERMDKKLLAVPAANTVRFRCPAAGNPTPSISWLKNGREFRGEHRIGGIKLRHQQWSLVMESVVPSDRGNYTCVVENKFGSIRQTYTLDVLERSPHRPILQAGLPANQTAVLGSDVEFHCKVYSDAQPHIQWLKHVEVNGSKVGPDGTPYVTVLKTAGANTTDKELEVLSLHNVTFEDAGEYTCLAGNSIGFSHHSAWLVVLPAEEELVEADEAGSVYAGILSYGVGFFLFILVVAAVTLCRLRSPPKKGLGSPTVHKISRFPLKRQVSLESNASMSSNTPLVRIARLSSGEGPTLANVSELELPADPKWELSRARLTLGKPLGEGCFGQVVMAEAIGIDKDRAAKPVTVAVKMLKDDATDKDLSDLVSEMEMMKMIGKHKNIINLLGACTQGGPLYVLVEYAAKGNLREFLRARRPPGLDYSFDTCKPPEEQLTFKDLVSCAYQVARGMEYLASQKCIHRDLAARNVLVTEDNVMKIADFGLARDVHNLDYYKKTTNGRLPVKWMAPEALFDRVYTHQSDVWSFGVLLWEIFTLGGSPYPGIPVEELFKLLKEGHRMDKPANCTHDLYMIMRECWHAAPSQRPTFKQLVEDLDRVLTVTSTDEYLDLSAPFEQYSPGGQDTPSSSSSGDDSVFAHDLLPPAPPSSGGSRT

Sequence | phosphorylation enrichment (AncSZ) | phosphorylation enrichment (EPHB1) | phosphorylation enrichment (EPHB2) | phosphorylation enrichment (FGFR1) | phosphorylation enrichment (FGFR3) | phosphorylation enrichment (Fer (mouse)) | phosphorylation enrichment (Fes) | phosphorylation enrichment (Fyn) | phosphorylation enrichment (Hck) | phosphorylation enrichment (Jak2) | phosphorylation enrichment (MERTK) | phosphorylation enrichment (c-Abl (mouse)) | phosphorylation enrichment (c-Src) | SH2 binding enrichment (Grb2 SH2) | SH2 binding enrichment (SHP2-C SH2) | SH2 binding enrichment (c-Src SH2)
SFDLDYDSVQP [MYC_Y16_N11S_YF] | 1.78 | 0.644 | 0.911 | 0.674 | 0.749 | 0.748 | 1.31 | 0.833 | 0.688 | 1.3 | 0.586 | 0.811 | 0.924 | 0.749 | 0.633 | 0.441
SFLSYYTSHVQ [NEFL_Y443_P440L] | 1.01 | 1.26 | 1.01 | 1.04 | 1.01 | 0.583 | 1.1 | 0.585 | 0.794 | 2.1 | 2.19 | 0.828 | 0.936 | 1.17 | 3.81 | 2.51
SGDDGYAKDAK [TENM4_Y1530] | 0.836 | 0.454 | 0.623 | 0.501 | 0.562 | 0.494 | 0.741 | 0.564 | 0.584 | 0.456 | 0.386 | 0.456 | 0.409 | 0.733 | 0.577 | 0.445
SGEKPYKCSEC [ZNF543_Y283] | 0.664 | 0.5 | 0.502 | 0.535 | 0.551 | 0.456 | 0.829 | 0.533 | 0.531 | 0.765 | 0.58 | 0.654 | 0.544 | 1.02 | 0.65 | 0.488
SGETKYNPTEA [NBEAL2_Y2748_E2747K] | 0.767 | 0.558 | 0.476 | 0.502 | 0.594 | 0.539 | 0.868 | 0.459 | 0.613 | 0.848 | 0.449 | 0.624 | 0.537 | 0.791 | 0.533 | 0.579
SGGSSYGSGGG [KRT1_Y532] | 0.506 | 0.381 | 0.396 | 0.411 | 0.389 | 0.397 | 0.583 | 0.382 | 0.396 | 0.537 | 0.362 | 0.633 | 0.449 | 0.871 | 0.527 | 0.427
SGPRRYNIAAL [TTR_Y125_T126N] | 0.572 | 0.285 | 0.343 | 0.505 | 0.394 | 0.432 | 0.52 | 0.377 | 0.43 | 0.511 | 0.411 | 0.452 | 0.409 | 0.556 | 0.551 | 0.419
SGPRRYTVAAL [TTR_Y125_I127V] | 0.51 | 0.409 | 0.42 | 0.401 | 0.423 | 0.393 | 0.496 | 0.457 | 0.429 | 0.729 | 0.395 | 0.635 | 0.415 | 0.794 | 0.516 | 0.618
SHGKQYRVPSD [HHIPL2_Y395_R394Q] | 0.54 | 0.35 | 0.371 | 0.344 | 0.427 | 0.354 | 0.544 | 0.34 | 0.4 | 0.46 | 0.347 | 0.512 | 0.353 | 0.686 | 0.475 | 0.403
SHGQDYLVGNK [GSTA1_Y147] | 0.585 | 0.402 | 0.456 | 0.385 | 0.419 | 0.449 | 0.74 | 0.451 | 0.412 | 0.606 | 0.363 | 0.62 | 0.417 | 0.58 | 0.564 | 0.432
SHMVNYQPFRK [TEX37_Y25_D24N_YF] | 0.528 | 0.376 | 0.371 | 0.347 | 0.364 | 0.355 | 0.534 | 0.37 | 0.405 | 0.573 | 0.358 | 0.504 | 0.492 | 0.766 | 0.732 | 0.613
SIKDKYVTALC [KCNH2_Y611_Y616C] | 0.64 | 0.387 | 0.371 | 0.376 | 0.81 | 0.467 | 0.695 | 0.393 | 0.362 | 0.653 | 0.346 | 0.51 | 0.386 | 0.918 | 0.801 | 0.555
SIKDKYVTAVF [KCNH2_Y611_L615V_YF] | 0.667 | 0.48 | 0.475 | 0.491 | 0.541 | 0.523 | 0.794 | 0.543 | 0.467 | 0.839 | 0.443 | 0.682 | 0.501 | 0.82 | 0.658 | 0.538
SIKDKYVTVLY [KCNH2_Y611_A614V] | 0.836 | 0.519 | 0.506 | 0.68 | 0.733 | 0.512 | 0.903 | 0.598 | 0.455 | 0.696 | 0.437 | 0.594 | 0.403 | 0.99 | 2.27 | 1.06
SIKGKYVTALF [KCNH2_Y611_D609G_YF] | 0.771 | 0.519 | 0.409 | 0.361 | 0.449 | 0.525 | 0.798 | 0.406 | 0.408 | 0.77 | 0.414 | 0.617 | 0.495 | 0.988 | 0.806 | 0.735
SILAVYSKDNF [PANK2_Y400_YF] | 0.868 | 0.58 | 0.76 | 0.662 | 0.709 | 0.438 | 1.69 | 0.862 | 0.872 | 0.867 | 0.995 | 0.522 | 1.94 | 0.802 | 0.975 | 0.716
SKLTIYDGRPS [MTM1_Y277_A279G] | 0.713 | 0.367 | 0.499 | 0.456 | 0.508 | 0.409 | 0.674 | 0.539 | 1.44 | 0.589 | 0.463 | 0.508 | 0.612 | 0.94 | 0.638 | 0.439

Sequence | phosphorylation enrichment (AncSZ) | phosphorylation enrichment (EPHB1) | phosphorylation enrichment (EPHB2) | phosphorylation enrichment (FGFR1) | phosphorylation enrichment (FGFR3) | phosphorylation enrichment (Fer (mouse)) | phosphorylation enrichment (Fes) | phosphorylation enrichment (Fyn) | phosphorylation enrichment (Hck) | phosphorylation enrichment (Jak2) | phosphorylation enrichment (MERTK) | phosphorylation enrichment (c-Abl (mouse)) | phosphorylation enrichment (c-Src) | SH2 binding enrichment (Grb2 SH2) | SH2 binding enrichment (SHP2-C SH2) | SH2 binding enrichment (c-Src SH2)
SLAARYYNWVC [FLT4_Y1230_S1235C] | 1.4 | 0.907 | 0.883 | 4.96 | 3.95 | 0.777 | 1.47 | 0.565 | 0.728 | 1.39 | 3.49 | 0.957 | 0.597 | 6.7 | 1.21 | 1.87
SLNAVYPKAGS [OAS3_Y376_R378K] | 0.562 | 0.296 | 0.383 | 0.427 | 0.443 | 0.412 | 0.515 | 0.395 | 0.422 | 0.474 | 0.417 | 0.467 | 0.473 | 0.841 | 0.76 | 0.456
SLNAVYPRAGR [OAS3_Y376_S381R] | 0.763 | 0.354 | 0.414 | 0.415 | 0.445 | 0.384 | 0.692 | 0.471 | 0.405 | 0.655 | 0.409 | 0.488 | 0.525 | 0.851 | 0.63 | 0.466
SMEGLYSSAQD [CLIC5_Y111_T114A] | 1.51 | 1.62 | 1.8 | 0.522 | 0.908 | 4.7 | 1.55 | 2.67 | 3.19 | 1.3 | 1.52 | 1.05 | 3.2 | 0.582 | 0.595 | 0.733
SNNFIYKTLGV [FAM83B_Y639_YF] | 0.637 | 0.45 | 0.485 | 0.484 | 0.555 | 0.421 | 0.734 | 0.506 | 0.572 | 0.639 | 0.394 | 0.631 | 0.478 | 0.785 | 0.45 | 0.405
SPPILYSFYLN [FCRL6_Y239_D244N] | 1.21 | 3.78 | 4.36 | 0.807 | 0.882 | 3.7 | 1.12 | 2.18 | 2.06 | 1.22 | 9.41 | 1.5 | 2.87 | 1.63 | 1.69 | 0.824
SQAPGYSFTAA [CYCS_Y47_G42S_YF] | 0.673 | 0.433 | 0.465 | 0.417 | 0.53 | 0.546 | 0.701 | 0.443 | 0.362 | 0.673 | 0.49 | 0.764 | 0.414 | 0.701 | 0.577 | 0.437
SQINLYQDVML [ZNF806_Y33_A28S] | 1.02 | 13.2 | 5.9 | 1.01 | 1.06 | 13.9 | 2.48 | 0.965 | 1.6 | 0.847 | 1.81 | 0.752 | 0.934 | 0.846 | 0.771 | 0.608
SQPASYQRRFL [PPIG_Y320_L324F] | 0.768 | 0.38 | 0.579 | 0.472 | 0.439 | 0.364 | 0.667 | 0.425 | 0.492 | 0.631 | 0.505 | 0.599 | 0.466 | 0.711 | 0.61 | 0.407
SQSAKYDMAED [TTC21B_Y1213_I1208S] | 0.9 | 0.461 | 0.635 | 0.634 | 0.56 | 0.509 | 0.894 | 0.556 | 0.582 | 0.858 | 0.441 | 0.661 | 0.566 | 0.839 | 0.545 | 1.22
SQSPHYFRSGQ [GPATCH8_Y1038_R1043Q] | 0.551 | 0.435 | 0.316 | 0.366 | 0.405 | 0.359 | 0.524 | 0.345 | 0.325 | 0.538 | 0.419 | 0.456 | 0.427 | 0.869 | 0.533 | 0.484
SRWKLYPRMLR [HAO1_Y50] | 0.81 | 0.478 | 0.442 | 0.394 | 0.482 | 0.341 | 0.619 | 0.405 | 0.415 | 0.873 | 0.447 | 0.524 | 0.442 | 0.79 | 0.585 | 0.392
SSEYHYVGGFY [CTSC_Y347] | 3.53 | 9.7 | 12.9 | 13.4 | 11.3 | 2.24 | 0.787 | 3.79 | 4.79 | 2.69 | 6.87 | 14.9 | 3.33 | 0.998 | 4.12 | 1.49
SSLEDYVRETN [GIMAP6_Y176_G171S] | 1.03 | 0.46 | 0.527 | 0.67 | 0.641 | 0.466 | 1.06 | 0.485 | 0.431 | 0.92 | 0.424 | 0.721 | 0.44 | 0.899 | 0.776 | 0.532
SSMIDYNLLEK [MYOC_Y479_P481L] | 0.855 | 0.455 | 0.563 | 0.526 | 0.698 | 0.417 | 0.954 | 0.482 | 0.518 | 0.968 | 0.434 | 0.685 | 0.409 | 0.822 | 0.692 | 0.723
SSPMKYQQNVS [EGFEM1P_Y160] | 0.541 | 0.319 | 0.352 | 0.334 | 0.408 | 0.392 | 0.592 | 0.339 | 0.412 | 0.623 | 0.398 | 0.562 | 0.397 | 0.878 | 0.661 | 0.432
